The target in data set [1] is Acs1Mt Asp502Ala variant (Methanothermobacter thermautotrophicus). Briefly: SEC; Superose 12 gel filtration column, 50 mM Tris pH 7.5 with 150 mM KCl, calibrated with mass standards; subunit composition (dimer). In general terms: In gel filtration, larger molecules generally elute earlier.
Data set [2] deals with Acs1Mt Ala500Thr variant (Methanothermobacter thermautotrophicus). The description is as above.
Data set [3] has as its target T1, acetyl-CoA synthetase (Acs1Mt) (Methanothermobacter thermautotrophicus, UniProt O26319).
T1 construct: gene MTH_217
T1 sequence (O26319 1-558): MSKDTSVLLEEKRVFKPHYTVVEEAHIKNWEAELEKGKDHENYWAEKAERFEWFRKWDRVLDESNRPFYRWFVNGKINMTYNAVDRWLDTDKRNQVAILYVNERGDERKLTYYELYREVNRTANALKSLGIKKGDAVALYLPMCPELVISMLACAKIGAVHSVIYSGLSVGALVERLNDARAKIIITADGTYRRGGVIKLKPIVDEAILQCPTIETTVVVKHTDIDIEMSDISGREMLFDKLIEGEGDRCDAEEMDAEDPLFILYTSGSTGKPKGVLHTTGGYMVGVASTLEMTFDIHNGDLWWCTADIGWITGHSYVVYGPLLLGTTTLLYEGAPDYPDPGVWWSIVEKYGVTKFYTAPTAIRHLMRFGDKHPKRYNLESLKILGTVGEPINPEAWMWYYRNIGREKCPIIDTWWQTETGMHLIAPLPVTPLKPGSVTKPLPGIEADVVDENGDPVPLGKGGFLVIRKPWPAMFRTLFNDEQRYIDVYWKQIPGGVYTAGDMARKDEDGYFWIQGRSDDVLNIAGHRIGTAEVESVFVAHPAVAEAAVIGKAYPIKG
Briefly: inhibition of purified enzyme, hydroxamate assay. The class given is biochemical.

Data set [4] concerns the target T2, Acs1Mt (Methanothermobacter thermautotrophicus, UniProt Q2XNL6).
T2 construct: gene acs1; recombinant in E. coli Rosetta Blue (DE3); Q-sepharose and phenyl sepharose purification; dimer; motif III 498-YTAGD-502
Briefly: hydroxamate assay, reciprocal plot of velocity vs inhibitor. The settings on record: all three substrates (acetate, MgATP, CoA) saturating; pH 7.5; 65 °C. The class given is biochemical.

Data set [5] has as its target Acs1Mt Asp502Asn variant (Methanothermobacter thermautotrophicus). Briefly: SEC; Superose 12 gel filtration column, 50 mM Tris pH 7.5 with 150 mM KCl, calibrated with mass standards; subunit composition (dimer).
Data set [6] has as its target Methanothermobacter thermautotrophicus Acs1 (AMP-forming acetyl-CoA synthetase), unaltered (Methanothermobacter thermautotrophicus). Described as above.
Data set [7] has as its target Acs1Mt Tyr498Phe variant (Methanothermobacter thermautotrophicus). The data set is described as above.
For data set [8], the target named is Acs1Mt Gly501Ala variant (Methanothermobacter thermautotrophicus). Described as above.
Data set [9] has as its target Acs1Mt Thr499Ala variant (Methanothermobacter thermautotrophicus). The data set is described as above.
In data set [10] the target is Acs1Mt Tyr498Ala variant (Methanothermobacter thermautotrophicus). Described as above.
For data set [11], the target named is Acs1Mt Asp502Glu variant (Methanothermobacter thermautotrophicus). Described as above.
Substrate in data set [12]: CC(=O)O
Briefly: purified protein. The conditions noted are these: Mg2+.

Substrate in data set [13]: CC(C)(COP(=O)(O)OP(=O)(O)OC[C@H]1O[C@@H](n2cnc3c(N)ncnc32)[C@H](O)[C@@H]1OP(=O)(O)O)[C@@H](O)C(=O)NCCC(=O)NCCS
Kind of data set: Michaelis-Menten kinetics of purified recombinant enzyme, hydroxamate assay (Km). In kind it is biochemical, Methanothermobacter thermautotrophicus. The settings on record: Mg2+.

Substrate in data set [14]: Nc1ncnc2c1ncn2[C@@H]1O[C@H](COP(=O)(O)OP(=O)(O)OP(=O)(O)O)[C@@H](O)[C@H]1O
The data set is described as above. The settings on record: Mg2+ active site; Asp502 interacts with the OH groups of the ribose moiety (model). The class given is biochemical, Methanothermobacter thermautotrophicus.

T2 sequence (Q2XNL6 1-634): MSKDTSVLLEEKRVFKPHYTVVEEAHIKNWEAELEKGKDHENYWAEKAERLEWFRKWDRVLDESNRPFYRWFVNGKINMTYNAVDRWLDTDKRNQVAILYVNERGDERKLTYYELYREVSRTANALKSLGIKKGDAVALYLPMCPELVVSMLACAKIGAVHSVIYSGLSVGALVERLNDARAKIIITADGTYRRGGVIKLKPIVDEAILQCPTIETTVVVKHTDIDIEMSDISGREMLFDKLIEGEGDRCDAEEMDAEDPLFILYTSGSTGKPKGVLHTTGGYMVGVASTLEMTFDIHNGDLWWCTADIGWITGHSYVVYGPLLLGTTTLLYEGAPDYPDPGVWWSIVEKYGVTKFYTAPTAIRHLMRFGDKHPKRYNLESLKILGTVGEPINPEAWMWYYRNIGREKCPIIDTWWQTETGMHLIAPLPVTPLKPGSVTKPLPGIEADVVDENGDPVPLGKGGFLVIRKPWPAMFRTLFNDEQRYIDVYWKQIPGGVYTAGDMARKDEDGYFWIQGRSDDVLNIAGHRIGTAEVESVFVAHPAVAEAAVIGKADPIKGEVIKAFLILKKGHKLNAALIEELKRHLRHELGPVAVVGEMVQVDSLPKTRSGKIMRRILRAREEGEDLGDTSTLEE

As to Acs1Mt Asp502Ala variant (enzyme), the stoichiometry N in data set [1] came to 2.
In the case of Acs1Mt Ala500Thr variant (enzyme), in data set [2], the stoichiometry N was determined as 2.
For the molecule `O=C[C@H](O)[C@H](O)[C@H](O)CO` [ribose], the affinity in data set [3] corresponds to a Ki of 53 mM. This counts as millimolar.
With `OC1OC[C@@H](O)[C@@H](O)[C@H]1O` (some centres unmarked) [ribose], the Ki in [4] is 53 mM. This counts as millimolar.
Consider Acs1Mt Asp502Asn variant (enzyme), for which, in data set [5], the stoichiometry N was 2.
“Methanothermobacter thermautotrophicus Acs1 (AMP-forming acetyl-CoA synthetase), unaltered (enzyme)” showed a stoichiometry N in data set [6] of 2.
Consider Acs1Mt Tyr498Phe variant (enzyme), for which the stoichiometry N in data set [7] was found to be 2.
Consider Acs1Mt Gly501Ala variant (enzyme), for which the stoichiometry N in data set [8] was 2.
The molecule Acs1Mt Thr499Ala variant (enzyme) came in with a stoichiometry N in data set [9] of 2.
As for Acs1Mt Tyr498Ala variant (enzyme), the stoichiometry N in [10] stood at 2.
In the case of Acs1Mt Asp502Glu variant (enzyme), the stoichiometry N in data set [11] stood at 2.

B1: acetyl-CoA synthetase (Acs1Mt) (Methanothermobacter thermautotrophicus str. Delta H) (protein)
chain: MSKDTSVLLEEKRVFKPHYTVVEEAHIKNWEAELEKGKDHENYWAEKAERFEWFRKWDRVLDESNRPFYRWFVNGKINMTYNAVDRWLDTDKRNQVAILYVNERGDERKLTYYELYREVNRTANALKSLGIKKGDAVALYLPMCPELVISMLACAKIGAVHSVIYSGLSVGALVERLNDARAKIIITADGTYRRGGVIKLKPIVDEAILQCPTIETTVVVKHTDIDIEMSDISGREMLFDKLIEGEGDRCDAEEMDAEDPLFILYTSGSTGKPKGVLHTTGGYMVGVASTLEMTFDIHNGDLWWCTADIGWITGHSYVVYGPLLLGTTTLLYEGAPDYPDPGVWWSIVEKYGVTKFYTAPTAIRHLMRFGDKHPKRYNLESLKILGTVGEPINPEAWMWYYRNIGREKCPIIDTWWQTETGMHLIAPLPVTPLKPGSVTKPLPGIEADVVDENGDPVPLGKGGFLVIRKPWPAMFRTLFNDEQRYIDVYWKQIPGGVYTAGDMARKDEDGYFWIQGRSDDVLNIAGHRIGTAEVESVFVAHPAVAEAAVIGKAYPIKG
For the molecule B1, the Km in data set [12] was 3.5 ± 0.1 mM; in [13] it was 0.19 ± 0.003 mM; in [14] it was 3.3 ± 0.2 mM.

A word on the stoichiometry N: it is the number of molecules, sites or subunits per partner or assembly. A word on the Ki: it is the equilibrium dissociation constant of an inhibitor or competing ligand from its target. The low end stands for tighter binding, the high end for weaker binding. The term Km denotes the substrate concentration at which the rate is half of its maximum.
